Test results reported in patent publication US20230151111A1 (AKESO BIOPHARMA, published 2023).
Like-named read-outs stand apart in the source and are kept apart here. Blank lines part the entries; values can stand above or below the binder they belong to.

Columns and labels:
PD-1-mFc [1] = molecular target: T1, PD-1-mFc (human, UniProt Q15116 25-170, limits assumed); assay: ELISA, PD-1-mFc coated
T1 construct: also called human PD-1-mFc
Method: Then the microplate coated with antigens was washed once with PBST, and then blocked with a PBS solution containing 1% BSA as blocking solution at 37° C. for 2 h. After blocking, the microplate was washed 3 times with PBST. The microplate containing the test antibodies was incubated at 37° C. for 30 min, and then washed 3 times with PBST. […] The microplate was put into a microplate reader immediately, and the OD value of each well in the microplate was read at 450 nm. The data were analyzed and processed by SoftMax Pro 6.2.1.

PD-1-mFc [2] = molecular target: T1, PD-1-mFc; assay: BLI (Fortebio), PD1-mFc on AMC sensor, antibody 0.62-50 nM, 30 C
Method: The sample dilution buffer was PBS (0.02% Tween-20, 0.1% BSA, pH 7.4). […] The data were analyzed by 1:1 model fitting to obtain affinity constants.

human PD-1-mFc-biotin [3] = molecular target: T2, human PD-1-mFc-biotin (human, UniProt Q15116 25-170, limits assumed, biotin label, site not stated); assay: competitive ELISA, blocking of PD-1-mFc-biotin binding to coated PD-L1-mFc
Method: After incubation, the microplate was blocked with a PBS solution containing 1% BSA at 37° C. for 2 h. […] The antibody was serially diluted to 7 concentrations in a gradient ratio of 1:3 on a dilution plate with 10 μg/mL as the starting concentration, and a blank control was set. […] Then the mixture after reaction was added to the coated microplate, and the microplate was incubated for at 37° C. for 30 min. After incubation, the plate was washed three times with PBST and dried. SA-HRP (KPL, 14-30-00) working solution was added, and the plate was incubated at 37° C. for 30 min. After incubation, the plate was washed four times and patted dry. Then TMB (Neogen, 308177) was added in the dark for chromogenesis for 5 min, and a stop solution was added to terminate chromogenic reaction. Then the microplate was put into a microplate reader immediately, and the OD value of each well in the microplate was read at 450 nm. The data were analyzed and processed by SoftMax Pro 6.2.1.

PD-1-mFc [4] = molecular target: T1, PD-1-mFc; assay: ELISA, PD-1-mFc coated; remark: listed apart in the source
Method: (§1) A microplate was coated with PD-1-mFc at 0.5 μg/mL and incubated at 4° C. overnight. Then the microplate coated with antigens was washed once with PBST, and then blocked with a PBS solution containing 1% BSA as blocking solution at 37° C. for 2 h. After blocking, the microplate was washed 3 times with PBST. The microplate containing the test antibodies was incubated at 37° C. for 30 min, and then washed 3 times with PBST. […] After incubation, the plate was washed 4 times with PBST, TMB (Neogen, 308177) was added in the dark for chromogenesis for 5 min, and then a stop solution was added to terminate chromogenic reaction. The microplate was put into a microplate reader immediately, and the OD value of each well in the microplate was read at 450 nm. The data were analyzed and processed by SoftMax Pro 6.2.1,

[5] = molecular target: T3, PD-1 on 293T-PD1 cell surface (human, UniProt Q15116 25-288); assay: flow cytometry, 293T-PD1 cells
T3 construct: whole, on cells
Method: (§2) 500 μL of PBSA was added, and the mixture was centrifuged at 5600 rpm for 5 min to remove the supernatant. […] The system was mixed gently and uniformly, and then was incubated on ice for 1 h. Then 500 μL of PBSA was added, and the mixture was centrifuged at 5600 rpm for 5 min to remove the supernatant. […] 500 μL of PBSA was added, and the mixture was centrifuged at 5600 rpm for 5 min to remove the supernatant. At last, 200 μL of PBSA was added to resuspend cell precipitates, and the mixture was transferred to a flow tube for FACSCalibur detection.

human NT5E-Biotin = molecular target: T4, human NT5E-Biotin (human, UniProt P21589 27-552, limits assumed, biotin label, site not stated); assay: ELISA, NT5E-biotin on streptavidin
T4 construct: Captured on streptavidin-coated plates; also called human NTSE-Biotin
T4 sequence (looked up): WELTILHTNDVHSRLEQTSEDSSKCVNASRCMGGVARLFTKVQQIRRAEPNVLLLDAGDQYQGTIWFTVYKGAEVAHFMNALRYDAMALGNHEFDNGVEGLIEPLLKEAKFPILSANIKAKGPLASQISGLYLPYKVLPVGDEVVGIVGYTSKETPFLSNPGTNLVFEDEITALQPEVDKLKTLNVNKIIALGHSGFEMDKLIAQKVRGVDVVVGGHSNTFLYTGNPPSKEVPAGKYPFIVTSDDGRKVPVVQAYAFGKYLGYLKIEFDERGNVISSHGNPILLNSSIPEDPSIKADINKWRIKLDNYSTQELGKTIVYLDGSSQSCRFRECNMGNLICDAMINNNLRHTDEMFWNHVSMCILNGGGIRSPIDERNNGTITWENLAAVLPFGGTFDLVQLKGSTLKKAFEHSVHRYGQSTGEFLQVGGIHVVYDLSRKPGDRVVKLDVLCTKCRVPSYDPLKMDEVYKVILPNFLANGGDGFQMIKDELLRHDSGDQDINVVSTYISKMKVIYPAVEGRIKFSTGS
Method: A microplate was coated with streptavidin at 2 μg/mL and then incubated at 4° C. overnight. After incubation, the microplate coated with streptavidin was washed once with PBST, and blocked with a PBS solution containing 1% BSA as a microplate blocking solution at 37° C. for 2 h. After blocking, the microplate was washed 3 times with PBST. Then, 0.5 μg/mL antigen human NTSE-Biotin was added and incubated at 37° C. for 30 min. Then, the plate was washed 3 times with PBST. The antibodies serially diluted with PBST solution (the dilution gradients for the antibody are shown in Table 3) were added to wells of the microplate. The microplate containing the test antibodies was incubated at 37° C. for 30 min, and then washed 3 times with PBST. […] After incubation, the plate was washed 4 times with PBST, TMB (Neogen, 308177) was added in the dark for chromogenesis for 5 min, and then a stop solution was added to terminate chromogenic reaction. The microplate was put into a microplate reader immediately, and the OD value of each well in the microplate was read at 450 nm. The data were analyzed and processed by SoftMax Pro 6.2.1.

[6] = molecular target: T3, PD-1 on 293T-PD1 cell surface; assay: flow cytometry, 293T-PD1 cells; antibody 0.05 nM
Method: as §2

[7] = molecular target: T3, PD-1 on 293T-PD1 cell surface; assay: flow cytometry, 293T-PD1 cells; antibody 0.14 nM
Method: as §2

[8] = molecular target: T3, PD-1 on 293T-PD1 cell surface; assay: flow cytometry, 293T-PD1 cells; antibody 0.41 nM
Method: as §2

[9] = molecular target: T3, PD-1 on 293T-PD1 cell surface; assay: flow cytometry, 293T-PD1 cells; antibody 1.23 nM
Method: as §2

[10] = molecular target: T3, PD-1 on 293T-PD1 cell surface; assay: flow cytometry, 293T-PD1 cells; antibody 3.70 nM
Method: as §2

[11] = molecular target: T3, PD-1 on 293T-PD1 cell surface; assay: flow cytometry, 293T-PD1 cells; antibody 11.11 nM
Method: as §2

[12] = molecular target: T3, PD-1 on 293T-PD1 cell surface; assay: flow cytometry, 293T-PD1 cells; antibody 33.33 nM
Method: as §2

[13] = molecular target: T3, PD-1 on 293T-PD1 cell surface; assay: flow cytometry, 293T-PD1 cells; antibody 100.00 nM
Method: as §2

PD-1-mFc [14] = molecular target: T1, PD-1-mFc; assay: ELISA, PD-1-mFc coated; antibody 1 ug/mL diluted 1:27
Method: as §1

human PD-1-mFc-biotin [15] = molecular target: T2, human PD-1-mFc-biotin; assay: competitive ELISA, blocking of PD-1-mFc-biotin binding to coated PD-L1-mFc; remark: listed apart in the source
Method: After incubation, the microplate was blocked with a PBS solution containing 1% BSA at 37° C. for 2 h. After blocking, the plate was washed three times and dried. The antibody was serially diluted to 7 concentrations in a gradient ratio of 1:3 on a dilution plate with 10 μg/mL as the starting concentration, and a blank control was set. […] Then the mixture after reaction was added to the coated microplate, and the microplate was incubated for at 37° C. for 30 min. After incubation, the plate was washed three times with PBST and dried. SA-HRP (KPL, 14-30-00) working solution was added, and the plate was incubated at 37° C. for 30 min. After incubation, the plate was washed four times and patted dry. Then TMB (Neogen, 308177) was added in the dark for chromogenesis for 5 min, and a stop solution was added to terminate chromogenic reaction. Then the microplate was put into a microplate reader immediately, and the OD value of each well in the microplate was read at 450 nm. The data were analyzed and processed by SoftMax Pro 6.2.1.

T3 sequence (Q15116 25-288): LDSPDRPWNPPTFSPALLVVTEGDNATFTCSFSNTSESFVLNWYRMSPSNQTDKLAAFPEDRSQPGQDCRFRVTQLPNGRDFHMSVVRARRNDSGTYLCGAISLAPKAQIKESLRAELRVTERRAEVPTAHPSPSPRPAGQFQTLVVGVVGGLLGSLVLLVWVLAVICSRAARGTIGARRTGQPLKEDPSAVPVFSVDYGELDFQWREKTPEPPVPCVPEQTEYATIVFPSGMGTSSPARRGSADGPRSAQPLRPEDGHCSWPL
T1 sequence (Q15116 other isoform, or with tags, fused parts or gaps limits assumed): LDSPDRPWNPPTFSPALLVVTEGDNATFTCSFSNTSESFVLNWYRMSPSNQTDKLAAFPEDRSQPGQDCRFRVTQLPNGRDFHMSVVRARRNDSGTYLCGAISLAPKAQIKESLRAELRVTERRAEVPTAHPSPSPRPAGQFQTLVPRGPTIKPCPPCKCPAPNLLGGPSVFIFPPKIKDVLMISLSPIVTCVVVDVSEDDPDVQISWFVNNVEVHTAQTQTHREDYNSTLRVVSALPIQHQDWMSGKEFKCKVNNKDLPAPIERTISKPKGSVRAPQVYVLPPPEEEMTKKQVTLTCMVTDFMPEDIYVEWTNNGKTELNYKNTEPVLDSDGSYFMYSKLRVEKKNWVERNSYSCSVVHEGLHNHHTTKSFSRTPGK
T2 sequence (Q15116 other isoform, or with tags, fused parts or gaps limits assumed): as above

EC50 (PD-1-mFc [1]): 0.031 nM
Kd (PD-1-mFc [2]): 0.0445 nM
EC50 (human PD-1-mFc-biotin [3]): 2.23 nM
B1: 14C12H1L1(hG1TM) (antibody, human IgG1, kappa)
heavy: not shown
light: DIQMTQSPSSMSASVGDRVTFTCRASQDINTYLSWFQQKPGKSPKTLIYRANRLVSGVPSRFSGSGSGQDYTLTISSLQPEDMATYYCLQYDEFPLTFGAGTKLELKRTVAAPSVFIFPPSDEQLKSGTASVVCLLNNFYPREAKVQWKVDNALQSGNSQESVTEQDSKDSTYSLSSTLTLSKADYEKHKVYACEVTHQGLSSPVTKSFNRGEC
notes: Humanized anti-PD-1 IgG1 with L234A/L235A/G237A

EC50 (PD-1-mFc [4]): 0.089 nM
EC50 [5]: 1.57 nM
EC50 (human NT5E-Biotin): 0.439 nM
FACS signal [6]: 24.8
FACS signal [7]: 52.4
FACS signal [8]: 113
FACS signal [9]: 289
FACS signal [10]: 467
FACS signal [11]: 1280
FACS signal [12]: 400
FACS signal [13]: 361
OD450 (PD-1-mFc [14]): 1.66 OD
EC50 (human PD-1-mFc-biotin [15]): 1.34 nM
B2: P1D7V04R (bispecific antibody, human IgG1, kappa)
heavy: not shown
light: B1 light
notes: Morrison form IgG-scFv
